Test results taken from patent US20130336893A1 (Sanofi, published 2013).
*1 amine or outer side, *2 acyl side, *3 side chain or, on linkers, in order; H or OH if unused. Where no end group is shown, it is not given here. Side-chain parts run from the residue outwards. [ ]: non-standard residue; d: D form. The star is where a group is joined. γGlu = O=C(O)[C@H](CCC(=O)[*:2])N[*:1]; Palmitoyl = CCCCCCCCCCCCCCCC(=O)*; Aib = CC(C)(N)C(=O)O

What was measured:
[1] = target: human GLP-1 receptor (human, UniProt P43220 24-463); assay: cell-based or functional assay
[2] = target: human glucagon receptor (human, UniProt P47871 26-477); assay: cell-based or functional assay
Sequence of human glucagon receptor (P47871 26-477): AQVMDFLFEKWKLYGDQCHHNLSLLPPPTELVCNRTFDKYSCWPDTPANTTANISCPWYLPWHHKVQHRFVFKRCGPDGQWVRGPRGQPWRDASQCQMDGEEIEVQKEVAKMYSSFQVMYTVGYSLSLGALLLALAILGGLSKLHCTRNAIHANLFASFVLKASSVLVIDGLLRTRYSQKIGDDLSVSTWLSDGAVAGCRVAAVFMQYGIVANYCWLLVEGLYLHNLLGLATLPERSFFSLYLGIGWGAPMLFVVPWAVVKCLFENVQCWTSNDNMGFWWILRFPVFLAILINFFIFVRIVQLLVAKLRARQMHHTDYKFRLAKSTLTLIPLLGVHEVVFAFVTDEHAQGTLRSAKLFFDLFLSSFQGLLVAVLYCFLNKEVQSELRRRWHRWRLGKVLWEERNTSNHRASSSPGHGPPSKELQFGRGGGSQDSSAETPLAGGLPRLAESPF

Binder	EC50 hGLP-1R (cAMP formation) [1] [nM]	EC50 hGlucagonR (cAMP formation) [2] [nM]
H[dS]QGTFTSDLSKQMDKRRAQDFIEWLKNGGPSSGAPPPSK([γGlu-Palmitoyl])-NH2 (N-terminus assumed; SMILES CCCCCCCCCCCCCCCC(=O)N[C@@H](CCC(=O)NCCCC[C@H](NC(=O)[C@H](CO)NC(=O)[C@@H]1CCCN1C(=O)[C@@H]1CCCN1C(=O)[C@@H]1CCCN1C(=O)[C@H](C)NC(=O)CNC(=O)[C@H](CO)NC(=O)[C@H](CO)NC(=O)[C@@H]1CCCN1C(=O)CNC(=O)CNC(=O)[C@H](CC(N)=O)NC(=O)[C@H](CCCCN)NC(=O)[C@H](CC(C)C)NC(=O)[C@H](Cc1c[nH]c2ccccc12)NC(=O)[C@H](CCC(=O)O)NC(=O)[C@@H](NC(=O)[C@H](Cc1ccccc1)NC(=O)[C@H](CC(=O)O)NC(=O)[C@H](CCC(N)=O)NC(=O)[C@H](C)NC(=O)[C@H](CCCNC(=N)N)NC(=O)[C@H](CCCNC(=N)N)NC(=O)[C@H](CCCCN)NC(=O)[C@H](CC(=O)O)NC(=O)[C@H](CCSC)NC(=O)[C@H](CCC(N)=O)NC(=O)[C@H](CCCCN)NC(=O)[C@H](CO)NC(=O)[C@H](CC(C)C)NC(=O)[C@H](CC(=O)O)NC(=O)[C@H](CO)NC(=O)[C@@H](NC(=O)[C@H](Cc1ccccc1)NC(=O)[C@@H](NC(=O)CNC(=O)[C@H](CCC(N)=O)NC(=O)[C@@H](CO)NC(=O)[C@@H](N)Cc1c[nH]cn1)[C@@H](C)O)[C@@H](C)O)[C@@H](C)CC)C(N)=O)C(=O)O) [SEQ ID NO: (69)]	0.0076	0.0059
H[dS]QGTFTSDLSKQMESRRAQDFIEWLKNTGPSSGAPPPSK([γGlu-Palmitoyl])-NH2 (N-terminus assumed; SMILES CCCCCCCCCCCCCCCC(=O)N[C@@H](CCC(=O)NCCCC[C@H](NC(=O)[C@H](CO)NC(=O)[C@@H]1CCCN1C(=O)[C@@H]1CCCN1C(=O)[C@@H]1CCCN1C(=O)[C@H](C)NC(=O)CNC(=O)[C@H](CO)NC(=O)[C@H](CO)NC(=O)[C@@H]1CCCN1C(=O)CNC(=O)[C@@H](NC(=O)[C@H](CC(N)=O)NC(=O)[C@H](CCCCN)NC(=O)[C@H](CC(C)C)NC(=O)[C@H](Cc1c[nH]c2ccccc12)NC(=O)[C@H](CCC(=O)O)NC(=O)[C@@H](NC(=O)[C@H](Cc1ccccc1)NC(=O)[C@H](CC(=O)O)NC(=O)[C@H](CCC(N)=O)NC(=O)[C@H](C)NC(=O)[C@H](CCCNC(=N)N)NC(=O)[C@H](CCCNC(=N)N)NC(=O)[C@H](CO)NC(=O)[C@H](CCC(=O)O)NC(=O)[C@H](CCSC)NC(=O)[C@H](CCC(N)=O)NC(=O)[C@H](CCCCN)NC(=O)[C@H](CO)NC(=O)[C@H](CC(C)C)NC(=O)[C@H](CC(=O)O)NC(=O)[C@H](CO)NC(=O)[C@@H](NC(=O)[C@H](Cc1ccccc1)NC(=O)[C@@H](NC(=O)CNC(=O)[C@H](CCC(N)=O)NC(=O)[C@@H](CO)NC(=O)[C@@H](N)Cc1c[nH]cn1)[C@@H](C)O)[C@@H](C)O)[C@@H](C)CC)[C@@H](C)O)C(N)=O)C(=O)O) [SEQ ID NO: (74)]	0.0396	0.0355
H[dS]QGTFTSDLSKQMESRRAQDFIEWLKR[dA]GPSSGAPPPSK([γGlu-Palmitoyl])-NH2 (N-terminus assumed; SMILES CCCCCCCCCCCCCCCC(=O)N[C@@H](CCC(=O)NCCCC[C@H](NC(=O)[C@H](CO)NC(=O)[C@@H]1CCCN1C(=O)[C@@H]1CCCN1C(=O)[C@@H]1CCCN1C(=O)[C@H](C)NC(=O)CNC(=O)[C@H](CO)NC(=O)[C@H](CO)NC(=O)[C@@H]1CCCN1C(=O)CNC(=O)[C@@H](C)NC(=O)[C@H](CCCNC(=N)N)NC(=O)[C@H](CCCCN)NC(=O)[C@H](CC(C)C)NC(=O)[C@H](Cc1c[nH]c2ccccc12)NC(=O)[C@H](CCC(=O)O)NC(=O)[C@@H](NC(=O)[C@H](Cc1ccccc1)NC(=O)[C@H](CC(=O)O)NC(=O)[C@H](CCC(N)=O)NC(=O)[C@H](C)NC(=O)[C@H](CCCNC(=N)N)NC(=O)[C@H](CCCNC(=N)N)NC(=O)[C@H](CO)NC(=O)[C@H](CCC(=O)O)NC(=O)[C@H](CCSC)NC(=O)[C@H](CCC(N)=O)NC(=O)[C@H](CCCCN)NC(=O)[C@H](CO)NC(=O)[C@H](CC(C)C)NC(=O)[C@H](CC(=O)O)NC(=O)[C@H](CO)NC(=O)[C@@H](NC(=O)[C@H](Cc1ccccc1)NC(=O)[C@@H](NC(=O)CNC(=O)[C@H](CCC(N)=O)NC(=O)[C@@H](CO)NC(=O)[C@@H](N)Cc1c[nH]cn1)[C@@H](C)O)[C@@H](C)O)[C@@H](C)CC)C(N)=O)C(=O)O) [SEQ ID NO: (76)]	0.0048	0.0741
H[dS]QGTFTSDLSKQMDERRAKDFIEWLKNGGPSSGAPPPSK([γGlu-Palmitoyl])-NH2 (N-terminus assumed; SMILES CCCCCCCCCCCCCCCC(=O)N[C@@H](CCC(=O)NCCCC[C@H](NC(=O)[C@H](CO)NC(=O)[C@@H]1CCCN1C(=O)[C@@H]1CCCN1C(=O)[C@@H]1CCCN1C(=O)[C@H](C)NC(=O)CNC(=O)[C@H](CO)NC(=O)[C@H](CO)NC(=O)[C@@H]1CCCN1C(=O)CNC(=O)CNC(=O)[C@H](CC(N)=O)NC(=O)[C@H](CCCCN)NC(=O)[C@H](CC(C)C)NC(=O)[C@H](Cc1c[nH]c2ccccc12)NC(=O)[C@H](CCC(=O)O)NC(=O)[C@@H](NC(=O)[C@H](Cc1ccccc1)NC(=O)[C@H](CC(=O)O)NC(=O)[C@H](CCCCN)NC(=O)[C@H](C)NC(=O)[C@H](CCCNC(=N)N)NC(=O)[C@H](CCCNC(=N)N)NC(=O)[C@H](CCC(=O)O)NC(=O)[C@H](CC(=O)O)NC(=O)[C@H](CCSC)NC(=O)[C@H](CCC(N)=O)NC(=O)[C@H](CCCCN)NC(=O)[C@H](CO)NC(=O)[C@H](CC(C)C)NC(=O)[C@H](CC(=O)O)NC(=O)[C@H](CO)NC(=O)[C@@H](NC(=O)[C@H](Cc1ccccc1)NC(=O)[C@@H](NC(=O)CNC(=O)[C@H](CCC(N)=O)NC(=O)[C@@H](CO)NC(=O)[C@@H](N)Cc1c[nH]cn1)[C@@H](C)O)[C@@H](C)O)[C@@H](C)CC)C(N)=O)C(=O)O) [SEQ ID NO: (70)]	0.005	0.0172
H[dS]QGTFTSDLSKQMESRRAQDFIEWLKKGGPSSGAPPPSK([γGlu-Palmitoyl])-NH2 (N-terminus assumed; SMILES CCCCCCCCCCCCCCCC(=O)N[C@@H](CCC(=O)NCCCC[C@H](NC(=O)[C@H](CO)NC(=O)[C@@H]1CCCN1C(=O)[C@@H]1CCCN1C(=O)[C@@H]1CCCN1C(=O)[C@H](C)NC(=O)CNC(=O)[C@H](CO)NC(=O)[C@H](CO)NC(=O)[C@@H]1CCCN1C(=O)CNC(=O)CNC(=O)[C@H](CCCCN)NC(=O)[C@H](CCCCN)NC(=O)[C@H](CC(C)C)NC(=O)[C@H](Cc1c[nH]c2ccccc12)NC(=O)[C@H](CCC(=O)O)NC(=O)[C@@H](NC(=O)[C@H](Cc1ccccc1)NC(=O)[C@H](CC(=O)O)NC(=O)[C@H](CCC(N)=O)NC(=O)[C@H](C)NC(=O)[C@H](CCCNC(=N)N)NC(=O)[C@H](CCCNC(=N)N)NC(=O)[C@H](CO)NC(=O)[C@H](CCC(=O)O)NC(=O)[C@H](CCSC)NC(=O)[C@H](CCC(N)=O)NC(=O)[C@H](CCCCN)NC(=O)[C@H](CO)NC(=O)[C@H](CC(C)C)NC(=O)[C@H](CC(=O)O)NC(=O)[C@H](CO)NC(=O)[C@@H](NC(=O)[C@H](Cc1ccccc1)NC(=O)[C@@H](NC(=O)CNC(=O)[C@H](CCC(N)=O)NC(=O)[C@@H](CO)NC(=O)[C@@H](N)Cc1c[nH]cn1)[C@@H](C)O)[C@@H](C)O)[C@@H](C)CC)C(N)=O)C(=O)O) [SEQ ID NO: (77)]	0.003	0.0372
H[dS]QGTFTSDLSKQMESRRAQDFIEWLK[Aib]GGPSSGAPPPSK([γGlu-Palmitoyl])-NH2 [SEQ ID NO: (73)]	0.0044	0.0212
H[dS]QGTFTSDLSKQMESRRAQDFIEWLKRGGPSSGAPPPSK([γGlu-Palmitoyl])-NH2 (N-terminus assumed; SMILES CCCCCCCCCCCCCCCC(=O)N[C@@H](CCC(=O)NCCCC[C@H](NC(=O)[C@H](CO)NC(=O)[C@@H]1CCCN1C(=O)[C@@H]1CCCN1C(=O)[C@@H]1CCCN1C(=O)[C@H](C)NC(=O)CNC(=O)[C@H](CO)NC(=O)[C@H](CO)NC(=O)[C@@H]1CCCN1C(=O)CNC(=O)CNC(=O)[C@H](CCCNC(=N)N)NC(=O)[C@H](CCCCN)NC(=O)[C@H](CC(C)C)NC(=O)[C@H](Cc1c[nH]c2ccccc12)NC(=O)[C@H](CCC(=O)O)NC(=O)[C@@H](NC(=O)[C@H](Cc1ccccc1)NC(=O)[C@H](CC(=O)O)NC(=O)[C@H](CCC(N)=O)NC(=O)[C@H](C)NC(=O)[C@H](CCCNC(=N)N)NC(=O)[C@H](CCCNC(=N)N)NC(=O)[C@H](CO)NC(=O)[C@H](CCC(=O)O)NC(=O)[C@H](CCSC)NC(=O)[C@H](CCC(N)=O)NC(=O)[C@H](CCCCN)NC(=O)[C@H](CO)NC(=O)[C@H](CC(C)C)NC(=O)[C@H](CC(=O)O)NC(=O)[C@H](CO)NC(=O)[C@@H](NC(=O)[C@H](Cc1ccccc1)NC(=O)[C@@H](NC(=O)CNC(=O)[C@H](CCC(N)=O)NC(=O)[C@@H](CO)NC(=O)[C@@H](N)Cc1c[nH]cn1)[C@@H](C)O)[C@@H](C)O)[C@@H](C)CC)C(N)=O)C(=O)O) [SEQ ID NO: (75)]	0.0046	0.0641
